The DeepSol protein solubility set

experiment: soluble on expression in E. coli; label from the status in PepcDB or PDB records

Row | Sequence | soluble on expression in E. coli
1 | FEQEGRDVALDYRWMPYKRISTNLKKALIASEDARFAGHGGFDWGGIQNAIRRNRNSGKVKAGGSTISQQLAKNLFLNESRSYIRKGEEAAITAMMEAVTDKDRIFELYLNSIEWHYGVFGAEAASRYFYQIPAAKLTKQQAAKLTARVPAPLYYADHPKSKRLRNKTNIVLKRMGSAELPESDTD | not soluble
2 | FGVWVLVPRSFPRCVWFQRSMAVVIRLQGLPIVAGTMDIRHFFSGLTIPDGGVHIVGGELGEAFIVFATDEDARLGMMRTGGTIKGSKVTLLLSSKTEMQNMIELSRRRFETANLDIPPANASRSGPPPSSGMSSRVNLPTTVSNFNNPSPSVVTATTSVHESNKNIQTFSTASVGTAPPNMGASFGSPTFSSTVPSTASPMNTVPPPPIPPIPAMPSLPPMPSIPPIPVPPPVPTLPPVPPVPPIPPVPSVPPMTPLPPMSGMPPLNPPPVAPLPAGMNGSGAPMNLNNNLNPMFLGPLNPVNPIQMNSQSSVKPLPINPDDLYVSVHGMPFSAMENDVRDFFHGLRVDAVHLLKDHVGRNNGNGLVKFLSPQDTFEALKRNRMLMIQRYVEVSPATERQWVAAGGHITFKQNMGPSGQTHPPPQTLPRSKSPSGQKRSRSRSPHEAGFCVYLKGLPFEAENKHVIDFFKKLDIVEDSIYIAYGPNGKATGEGFVEFRNEADYKAALCRHKQYMGNRFIQVHPITKKGMLEKIDMIRKRLQNFSYDQREMILNPEGDVNSAKVCAHITNIPFSITKMDVLQFLEGIPVDENAVHVLVDNNGQGLGQALVQFKNEDDARKSERLHRKKLNGREAFVHVVTLEDMREIEKNPPAQGKKGLKMPVPGNPAVPGMPNAGLPGVGLPSAGLPGAGLPSTGLPGSAITSAGLPGAGMPSAGIPSAGGEEHAFLTVGSKEANNGPPFNFPGNFGGSNAFGPPIPPPGLGGGAFGDARPGMPSVGNSGLPGLGLDVPGFGGGPNNLSGPSGFGGGPQNFGNGPGSLGGPPGFGSGPPGLGSAPGHLGGPPAFGPGPGPGPGPGPIHIGGPPGFASSSGKPGPTVIKVQNMPFTVSIDEILDFFYGYQVIPGSVCLKYNEKGMPTGEAMVAFESRDEATAAVIDLNDRPIGSRKVKLVLG | soluble
3 | FHLTTRNGEPHMIVSRQEKGKSLLFKTEDGVNMCTLMAMDLGELCEDTITYKCPLLRQNEPEDIDCWCNSTSTWVTYGTCT | soluble
4 | FHQISSRIQKSIDVDEVLRLCAEGLHDVLGYERVNILMADTARTSLSFVAAVGTADFNPAGVVLPLDQRGGVITKCFTDRQVYMIDDVSAYPTDFRLQSPYDAIRALRSKSFVICPIVVKGEAIGVFAVDNRSSRRSLNDTDVDTIKLFADQASSAIVRINLLKAI | soluble
5 | FLGELLIDLPLPVDTPSVDQCEKCRACITSCPTQAIVEDKVVDARRCISYLTIEFDGVIPEEFRKPMGNRIYGCDDCQLVCPWNRYADVTEQEDFHRRESFHNPDLVE | not soluble
6 | FLRDAPKHLNPDGEIRLIISDLAEHLHLRPSDFLDKAFAQAGLRVADMMKTKPKHKKAANPSDPLAFARTRETTFLYRLKKA | not soluble
7 | FQIGDMVARKSYQMDVLFRIIGIEQTSKGNSIAILHGDEVRLIADSDFSDLVAVKKDEQMMRKKKDESRMNESLELLRQDYKLLREKQEYYATSQYQHQEHYFHMPGKVLHLDGDEAYLKKCLNVYKKIGVPVYGIHCHEKKMSASIEVLLDKYRPDILVITGHDAYSKQKGGIDDLNAYRHSKHFVETVQTARKKIPHLDQLVIFAGACQSHFESLIRAGANFASSPSRVNIHALDPVYIVAKISFTPFMERINVWEVLRNTLTREKGLGGIETRGVLRIGMPYKSN | not soluble
8 | FSGSEATAAILSRAPWSLQSVNPGLKTNSSKEPKFTKCRSPERETFSCHWTDEVHHGTKNLGPIQLFYTRRNTQEWTQEWKECPDYVSAGENSCYFNSSFTSIWIPYCIKLTSNGGTVDEKCFSVDEIVQPDPPIALNWTLLNVSLTGIHADIQVRWEAPRNADIQKGWMVLEYELQYKEVNETKWKMMDPILTTSVPVYSLKVDKEYEVRVRSKQRNSGNYGEFSEVLYVTLPQMSQ | soluble
9 | FVLTPGNPRWENTHLTYRIENYTPDLSREDVDRAIEKAFQLWSNVSPLTFTKVSEGQADIMISFVRGDHRDNSPFDGPGGNLAHAFQPGPGIGGDAHFDEDERWTKNFRDYNLYRVAAHELGHSLGLSHSTDIGALMYPNYIYTGDVQLSQDDIDGIQAIYGPSENPVQPSGPQTPQVCDSKLTFDAITTLRGELMFFKDRFYMRTNSFYPEVELNFISVFWPQVPNGLQAAYEIADRDEVRFFKGNKYWAVRGQDVLYGYPKDIHRSFGFPSTVKNIDAAVFEEDTGKTYFFVAHECWRYDEYKQSMDTGYPKMIAEEFPGIGNKVDAVFQKDGFLYFFHGTRQYQFDFKTKRILTLQKANSWFNCRKN | soluble
10 | GAATMMRLARAMRPRPDGLPAQADDLRLHRLVLNDVGPRLNVEALQRIAGNVAAQDSYPTFEAAVAAMRQISTTFGPHTDAQWDELARHIYVRQGGGWVRHFDPALAVPLGAQVAQAFEAGERILWQAYDSLDCPVLIVRGQDSDLLSAATAAEMLGRNPRARLHEVPGVGHAPTLMTPEQIEPIARFLQE | not soluble
11 | GADGVGNASGDWHCDSTWSEGHVTTTSTRTWVLPTYNNHLYKRLGESLQSNTYNGFSTPWGYFDFNRFHCHFSPRDWQRLINNNWGMRPKAMRVKIFNIQVKEVTTSNGETTVANNLTSTVQIFADSSYELPYVMDAGQEGSLPPFPNDVFMVPQYGYCGLVTGNTSQQQTDRNAFYCLEYFPSQMLRTGNNFEITYSFEKVPFHSMYAHSQSLDRLMNPLIDQYLWGLQSTTTGTTLNAGTATTNFTKLRPTNFSNFKKNWLPGPSIKQQGFSKTANQNYKIPATGSDSLIKYETHSTLDGRWSALTPGPPMATAGPADSKFSNSQLIFAGPKQNGNTATVPGTLIFTSEEELAATNATDTDMWGNLPGGDQSNSNLPTVDRLTALGAVPGMVWQNRDIYYQGPIWAKIPHTDGHFHPSPLIGGFGLKHPPPQIFIKNTPVPANPATTFSSTPVNSFITQYSTGQVSVQIDWEIQKERSKRWNPEVQFTSNYGQQNSLLWAPDAAGKYTEPRAIGTRYLTHHL | soluble
12 | GADNNKWKPLFGKNLENANYNPEVWSETDGVLGAVKDESIWTKDEYENFELDLDFKTDVGTNSGVVVYCTDTKDWIPNSVEIQIADDHCEKWGNGKPYEKCGAIYGHLGAVQDKVVKKPGEWNHMRIKCAGQHIMVILNGKKVTEMDMSKWTSGTKNPDGSDIPSWLPKPFAELPTKGFIGLQGKHGDSLIWFRNIKIRSL | soluble
13 | GAHMADLSLEKAAEVSWEEEAEHSGASHNILVEVQDDGTMKIKDEERDDTLGGGGSGGGGSGVLWDTPSPGIYRILQRGLLGRSQVGVGVFQEGVFHTMWHVTRGAVLMYQGKRLEPSWASVKKDLISYGGGWRFQGSWNAGEEVQVIAVEPGKNPKNVQTAPGTFKTPEGEVGAIALDFKPGTAGSPIVNREGKIVGLYGNGVVTTSGTYVSAIAQAKASQEGPLPEIEDEVFRK | soluble
14 | GAKLNRKLRQDSTDRYKTKLYLWRNLGGLIPEDMAISVTESITADWKQYNDMMSKVRNETLDILKTNKVATEDYIGYIAFAEELAHQVWKNKNSSPDPNTANEASKTDLESKYSDVYGLDVTVLDAIYNAVIPIIMGGGS | soluble
15 | GALLHQRDQDMLVSILDLEKVSVEDIMIPRSDLVGIDVNDDWKKIQKQLTQANHTRVLLYRDSIDDVVGYIHARDALKLLSKNQFNKATLLRAVRELYFVPEGTPLNIQLLKFQHAKERIGLVVDEYGDIQGLVTLEDILEEIVGDFT | not soluble
16 | GAMEAEKEFITMLKENQVDSTWSFSRIISELGTRDPRYWMVDDDPLWKKEMFEKYLSNR | soluble
17 | GAMGDASRVRVSGQGLHEGHTFEPAEFIIDTRDAGYGGLSLSIEGPSKVDINTEDLEDGTCRVTYCPTEPGNYIINIKFADQHVPGSPFSVKVTGEGRVKESITRRRRAPSVANVGSHCDLSLKIPEISIQDMTAQVTSPSGKTHEAEIVEGENHTYCIRFVPAEMGTHTVSVKYKGQHVPGSPFQFTVGPLGEGGAHKVRAGGPGLERAEAGVPAEFSIWTREAGAGGLAIAVEGPSKAEISFEDRKDGSCGVAYVVQEPGDYEVSVKFNEEHIPDSPFVVPVASPS | soluble
18 | GAMGNNLVETTCKNTPNYQLCLKTLLSDKRSATGDITTLALIMVDAIKAKANQAAVTISKLRHSNPPAAWKGPLKNCAFSYKVILTASLPEAIEALTKGDPKFAEDGMVGSSGDAQECEEYFKGSKSPFSALNIAVHELSDVGRAIVRNLL | soluble
19 | GANPTTAETLDATRRVDDATVAIRCAINNLIVELIRGTGSYNRSSFESSSGLVWTSGPAGEGSYSITTPSQFVFLSSAWADPIELINLCTNALGNQFQTQQARTVVQRQFSEVWKPSPQVTVRFPDSDFKVYRYNAVLDPLVTALLGAFDTRNRIIEVENQ | soluble
20 | GCALNCSFCSTAKQGFNRNLSTAEIIGQVWLAARELSDNNGTHDKKITNVVMMGMGEPLLNFDNVVSAMNIMMDDLAYGLSKRRVTLSTSGVLPEMERLREVSPVALAVSLHAPTDELRNELVPINKKYPLSQLISLCKRYFKDEPRRKVTFEYVMLKGVNDQPEHASQLIKLLHNVPAKVNLIPFNPFPLTQYQRSSRETIDAFRDKLMKHGINTITRKTRG | not soluble
21 | GCPHDCVFCNQNTITGEESKVNGDYVKSTVEDYLDTIPNKSATIEISFFGGTFTAINIEKQKELLSVARHYKEIGKIKYIRLSTRPDYIDDEILTNLKNYSVDIIELGVQSLDSEVLLKSGRGHTKEDVVKASRLIKKYGFTLGHQIMLGLPGDNAEKDIETTRKVICMKPNICRIYPALVIKDTAMEKMYNRGIYKPYDIEECVEI | not soluble
22 | GDQRFDVLITGGTLVDVVTGELRPADIGIVGALIASVHEPASRRDAAQVIDAGGAYVSPGLIDTHMHIESSMITPAAYAAAVVARGVTTIVWDPHEFGNVHGVDGVRWAAKAIENLPLRAILLAPSCVPSAPGLERGGADFDAAILADLLSWPEIGGIAEIMNMRGVIERDPRMSGIVQAGLAAEKLVCGHARGLKNADLNAFMAAGVSSDHELVSGEDLMAKLRAGLTIELRGSHDHLLPEFVAALNTLGHLPQTVTLCTDDVFPDDLLQGGGLDDVVRRLVRYGLKPEWALRAATLNAAQRLGRSDLGLIAAGRRADIVVFEDLNGFSARHVLASGRAVAEGGRMLVDIPTCDTTVLKGSMKLPLRMANDFLVKSQGAKVRLATIDRPRFTQWGETEADVKDGFVVPPEGATMISVTHRHGMAEPTTKTGFLTGWGRWNGAFATTVSHDSHNLTVFGGNAGDMALAANAVIGTGGGMAVASEGKVTAILPLPLSGLVSDAPLEEVARAFEDLREAVGKVVEWQPPYLVFKACFGATLACNIGPHQTDMGIADVLTGKVMESPVIEV | not soluble
23 | GEASPVDPLRPVVDASIQPLLKEHRIPGMAVAVLKDGKAHYFNYGVANRESGAGVSEQTLFEIGSVSKTLTATLGAYAVVKGAMQLDDKASRHAPWLKGSAFDSITMGELATYSAGGLPLQFPEEVDSSEKMRAYYRQWAPVYSPGSHRQYSNPSIGLFGHLAASSLKQPFAPLMEQTLLPGLGMHHTYVNVPKQAMASYAYGYSKEDKPIRVNPGMLADEAYGIKTSSADLLRFVKANIGGVDDKALQQAISLTHQGHYSVGGMTQGLGWESYAYPVTEQTLLAGNSAKVILEANPTAAPRESGSQVLFNKTGSTNGFGAYVAFVPARGIGIVMLANRNYPIEARIKAAHAILAQLAG | soluble
